This is an account of results in article PMC4877045.

In this test the target is cleaved human TNFα (human). The test can be described thus: SEC; SEC-HPLC on an analytic TSK G3000SWXL column, PBS mobile phase, 1 ml/min, OD280; molecular weight estimated from retention time against a protein size standard; self-association (trimer).

For cleaved human TNFα (ligand), the stoichiometry N was 3.

The stoichiometry N is a count of units in the complex or per binding partner.
